Measured values: patent US20180318418A1 (UNIQUEST, published 2018)

Legend:
Test in all cases: dot blot, peptide on PVDF membrane
peptide 08/08-2′ = target: T1, peptide 08/08-2′ (Epstein-Barr virus)
T1 construct: 7-mer derived from 08/08′ (BARF1 28-38)
T1 peptide: TSYWRRV

peptide 08/08-2 = target: T2, peptide 08/08-2 (Epstein-Barr virus)
T2 construct: 8-mer derived from 08/08 (BARF1 27-40)
T2 peptide: TSYWRRVS

[1] = target: T3, peptide 05/08 (BARF1 201-221) (Epstein-Barr virus)
T3 construct: Spotted on PVDF membrane for dot blot; also called 05/08201-221
T3 peptide: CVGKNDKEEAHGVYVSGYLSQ

[2] = target: T4, peptide 06/08 (BARF1 104-120) (Epstein-Barr virus)
T4 construct: Spotted on PVDF membrane for dot blot; also called 06/08104-120
T4 peptide: CRMKLGETEVTKQEHLS

Measured: binding result

B1: anti-BARF1 3D4 monoclonal antibody (antibody, V domains shown)
VH: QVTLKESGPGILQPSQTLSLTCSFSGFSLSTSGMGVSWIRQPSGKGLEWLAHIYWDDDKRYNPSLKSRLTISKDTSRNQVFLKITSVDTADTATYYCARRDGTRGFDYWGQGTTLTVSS
VL: QIVLTQSPAIMSASLGERVTMTCTATSSVSSSYLHWYQQKPGSSPKLWIYSTSNLASGVPARFSGSGSGTSYSLTISSMEAEDAATYYCHQYHRSPPWTFGGGTKLEIK
notes: also called 3D4 mAb; clone 3D4
no binding (tested: about 10 µg/spot): all assays above
